Data taken from paper PMC4621513, “APOBEC3G Interacts with ssDNA by Two Modes: AFM Studies”.

Molecular target: APOBEC3G (A3G) (UniProt Q9HC16 1-384)
Experiment: AFM force spectroscopy; two binding modes; stronger and more stable complexes than with nonspecific ssDNA; Force spectroscopy probing buffer: 50 mM HEPES, 100 mM NaCl, 5 mM MgCl2, 1 mM DTT (pH and temperature not given); imaging buffer not in the material
Settings: protein: recombinant; tags: mycHis (C-terminal)

APOBEC3G (A3G), sequence (Q9HC16 whole entry): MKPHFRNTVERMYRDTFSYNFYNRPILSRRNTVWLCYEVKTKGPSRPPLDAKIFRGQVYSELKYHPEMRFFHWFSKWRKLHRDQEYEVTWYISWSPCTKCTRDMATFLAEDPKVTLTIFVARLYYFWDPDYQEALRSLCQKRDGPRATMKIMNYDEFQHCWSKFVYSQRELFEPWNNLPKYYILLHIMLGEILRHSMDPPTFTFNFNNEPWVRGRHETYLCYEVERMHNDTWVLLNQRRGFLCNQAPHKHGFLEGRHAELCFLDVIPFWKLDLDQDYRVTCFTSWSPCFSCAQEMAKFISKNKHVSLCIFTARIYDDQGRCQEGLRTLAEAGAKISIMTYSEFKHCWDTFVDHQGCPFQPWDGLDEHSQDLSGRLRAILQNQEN

B1: 69 nt deaminase specific ssDNA (ssDNA)
DNA: TACGTGTAGGAATTATATTAAAGAGAAAGTGAAACCCAAAGAATGAAAACCCAAATGTTAGAATTGTTA
modifications: 5' thiol
binding result: binds
